Results from PMC3203579.

Target: T1, AtFib2 (Arabidopsis thaliana, UniProt Q94AH9 1-320)
T1 sequence: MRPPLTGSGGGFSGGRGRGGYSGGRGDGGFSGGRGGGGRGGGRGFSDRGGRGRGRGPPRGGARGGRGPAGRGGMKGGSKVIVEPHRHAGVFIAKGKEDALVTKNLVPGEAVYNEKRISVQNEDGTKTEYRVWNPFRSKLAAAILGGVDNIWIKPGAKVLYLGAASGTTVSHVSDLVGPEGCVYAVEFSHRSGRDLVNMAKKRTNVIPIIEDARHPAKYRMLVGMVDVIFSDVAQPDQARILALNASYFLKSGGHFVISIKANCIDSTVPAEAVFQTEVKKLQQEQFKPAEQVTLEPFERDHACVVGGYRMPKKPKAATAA
Experiment: EMSA

B1: poly(A) 80 nt (ssRNA)
RNA: AAAAAAAAAAAAAAAAAAAAAAAAAAAAAAAAAAAAAAAAAAAAAAAAAAAAAAAAAAAAAAAAAAAAAAAAAAAAAAAA
Kd: 190 nM
